# Assay results reported in patent CN114249819A.
# B1: 单克隆抗体3C3 (antibody, V domains shown)
# VH: DVKLVESGGGLVNLGGSLKLSCAASGFTFSSYYMSWVRQTPEKRLELVAAINSNGGGTHSPDTVKGRFTISRDNAKNTLYLQMSSLESEDTALYYCARHADDGSFGLNWYFDVWGAGTTVTVSS
# VL: DIVMSQSPSSLAVSVGEKVTMSCKSSQSLLYRSNEKNYLAWYQQKPGQSPKLLIYWGSTRESGVPDRFTGSGSGTDFTLTISSVKAEDLAVYYCHQYYRYSYTFGGGTKLEIK
# Assays:
# [1] = target: 猫泛白细胞减少症病毒1009株 (Feline panleukopenia virus); test: indirect immunofluorescence on acetone-fixed F81 cells infected with FPV 1009 strain
# [2] = target: 猫泛白细胞减少症病毒1009株 (Feline panleukopenia virus); test: cell-based or functional assay
binder,measurement,setting,value
B1,IFA效价 (reciprocal dilution (printed 1:n)),[1],6400
same,HI效价 (reciprocal dilution (printed 1:n)),[2],5120
